Assay results taken from paper PMC3575847 (Nucleic Acids Research, 2012).

Target: T1, Upf1-FL produced in E. coli (Upf1-FLc; amino acids 1–1118) (human, UniProt Q92900-2 1-1118)
T1 sequence (looked up): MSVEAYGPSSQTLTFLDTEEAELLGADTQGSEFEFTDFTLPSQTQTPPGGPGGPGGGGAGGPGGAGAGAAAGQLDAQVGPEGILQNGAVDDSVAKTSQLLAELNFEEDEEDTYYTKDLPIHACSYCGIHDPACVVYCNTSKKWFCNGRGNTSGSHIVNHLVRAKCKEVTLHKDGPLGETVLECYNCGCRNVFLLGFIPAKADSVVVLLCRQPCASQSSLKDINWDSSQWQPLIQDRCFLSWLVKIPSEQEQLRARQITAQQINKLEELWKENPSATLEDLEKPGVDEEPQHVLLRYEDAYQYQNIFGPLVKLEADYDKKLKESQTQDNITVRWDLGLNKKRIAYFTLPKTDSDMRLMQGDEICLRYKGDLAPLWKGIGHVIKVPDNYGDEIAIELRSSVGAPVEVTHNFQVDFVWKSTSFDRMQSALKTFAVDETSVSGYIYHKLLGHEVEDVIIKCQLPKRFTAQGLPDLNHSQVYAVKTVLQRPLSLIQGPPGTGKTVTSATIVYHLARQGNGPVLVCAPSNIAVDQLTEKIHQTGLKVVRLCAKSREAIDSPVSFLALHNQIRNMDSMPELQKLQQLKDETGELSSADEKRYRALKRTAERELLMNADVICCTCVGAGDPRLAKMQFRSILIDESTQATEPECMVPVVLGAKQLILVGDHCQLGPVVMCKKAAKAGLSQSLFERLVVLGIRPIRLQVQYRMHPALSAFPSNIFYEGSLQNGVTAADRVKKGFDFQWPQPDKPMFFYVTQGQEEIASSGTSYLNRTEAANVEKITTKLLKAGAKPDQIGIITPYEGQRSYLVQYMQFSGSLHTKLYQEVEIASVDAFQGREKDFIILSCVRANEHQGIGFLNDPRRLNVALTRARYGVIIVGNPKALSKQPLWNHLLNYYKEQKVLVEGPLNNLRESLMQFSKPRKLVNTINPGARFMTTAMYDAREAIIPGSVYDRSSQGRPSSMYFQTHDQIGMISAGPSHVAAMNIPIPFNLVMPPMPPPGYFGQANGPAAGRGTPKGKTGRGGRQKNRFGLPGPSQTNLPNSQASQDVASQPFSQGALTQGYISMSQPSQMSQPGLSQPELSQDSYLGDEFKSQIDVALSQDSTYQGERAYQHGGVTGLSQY
Experiment: pull-down

binding result: binds
B1: CBP-tagged Upf2 (761–1227) (domain or fragment, UniProt Q9HAU5 761-1227, looked up)
chain: EKTVKKKRPPLQEYVRKLLYKDLSKVTTEKVLRQMRKLPWQDQEVKDYVICCMINIWNVKYNSIHCVANLLAGLVLYQEDVGIHVVDGVLEDIRLGMEVNQPKFNQRRISSAKFLGELYNYRMVESAVIFRTLYSFTSFGVNPDGSPSSLDPPEHLFRIRLVCTILDTCGQYFDRGSSKRKLDCFLVYFQRYVWWKKSLEVWTKDHPFPIDIDYMISDTLELLRPKIKLCNSLEESIRQVQDLEREFLIKLGLVNDKDSKDSMTEGENLEEDEEEEEGGAETEEQSGNESEVNEPEEEEGSDNDDDEGEEEEEENTDYLTDSNKENETDEENTEVMIKGGGLKHVPCVEDEDFIQALDKMMLENLQQRSGESVKVHQLDVAIPLHLKSQLRKGPPLGGGEGEAESADTMPFVMLTRKGNKQQFKILNVPMSSQLAANHWNQQQAEQEERMRMKKLTLDINERQEQED
